In publication PMC6008203:

Substrate: CC(C)(COP(=O)(O)OP(=O)(O)OC[C@H]1O[C@@H](n2cnc3c(N)ncnc32)[C@H](O)[C@@H]1OP(=O)(O)O)[C@@H](O)C(=O)NCCC(=O)NCCS
Experiment: purified protein
Type: biochemical, Streptomyces platensis
Conditions: saturating 6 (100 μM), Tris pH 7.8, 25 °C

B1: PtmA2 (Streptomyces platensis; A497K) (protein)
chain: MQHTTIGDVLREHRRSHPGRTALVDGPVRLTWPELDDRVNRLAGSLAASGIGRGDRIMWLGQNSFRVYELIAAAGKLGAMVCVGYWRWAPPEMEFALRDFDPHLVVWQHQEIHETVARTREALGSDDTARWLRHDSAPQDPDGYEAFLAAGGLADPDLDIDPDSPVLVLYTAAMSGRQCGSLLSHTNLIAMATAAAWLGDIDHTTAFLNSGPMFHIGNHQFWGMPTLLMAGKNVIVRRVVAEEVRDLLVAEECTHAFLMPPTVAEIVRLNRDTGHDLSRLRATVAPHLWEGMATTDTSRFTRSGAAAGRGYGQTELSGFAVTAAYGGPAAGNAGRPGPGLTVRVLDTAGRECAVGEAGEICARGTVVHRGYWNRDEVNAHRFRSGWWHTTDLGRREPDGSLTFLGTTTRMLKSAAENIFPAEVENCIEQHPAVREAAVIGVPNTRWAQDVKAVVVLEPDAGVSEQEIIDHCRPRIASYKKPKSVAFAAALPRTVSGKRDYDALDKEYGGGGYPGAATLGPGR
  Km: 6.8 ± 1.0 µM
  Vmax: 4.74 µmol/min
  kcat: 32 s⁻¹
  kcat/Km: 4.7e+06 M⁻¹ s⁻¹

B2: PtmA2 (Streptomyces platensis; A172S/A173G/A497K/C179K/M174T/Q178P) (protein)
chain: MQHTTIGDVLREHRRSHPGRTALVDGPVRLTWPELDDRVNRLAGSLAASGIGRGDRIMWLGQNSFRVYELIAAAGKLGAMVCVGYWRWAPPEMEFALRDFDPHLVVWQHQEIHETVARTREALGSDDTARWLRHDSAPQDPDGYEAFLAAGGLADPDLDIDPDSPVLVLYTSGTSGRPKGSLLSHTNLIAMATAAAWLGDIDHTTAFLNSGPMFHIGNHQFWGMPTLLMAGKNVIVRRVVAEEVRDLLVAEECTHAFLMPPTVAEIVRLNRDTGHDLSRLRATVAPHLWEGMATTDTSRFTRSGAAAGRGYGQTELSGFAVTAAYGGPAAGNAGRPGPGLTVRVLDTAGRECAVGEAGEICARGTVVHRGYWNRDEVNAHRFRSGWWHTTDLGRREPDGSLTFLGTTTRMLKSAAENIFPAEVENCIEQHPAVREAAVIGVPNTRWAQDVKAVVVLEPDAGVSEQEIIDHCRPRIASYKKPKSVAFAAALPRTVSGKRDYDALDKEYGGGGYPGAATLGPGR
A497K/P-loop mutant
  Km: 69 ± 11 µM
  Vmax: 5.94 µmol/min
  kcat: 10 s⁻¹
  kcat/Km: 140000 M⁻¹ s⁻¹

B3: PtmA2 (Streptomyces platensis) (protein)
chain: MQHTTIGDVLREHRRSHPGRTALVDGPVRLTWPELDDRVNRLAGSLAASGIGRGDRIMWLGQNSFRVYELIAAAGKLGAMVCVGYWRWAPPEMEFALRDFDPHLVVWQHQEIHETVARTREALGSDDTARWLRHDSAPQDPDGYEAFLAAGGLADPDLDIDPDSPVLVLYTAAMSGRQCGSLLSHTNLIAMATAAAWLGDIDHTTAFLNSGPMFHIGNHQFWGMPTLLMAGKNVIVRRVVAEEVRDLLVAEECTHAFLMPPTVAEIVRLNRDTGHDLSRLRATVAPHLWEGMATTDTSRFTRSGAAAGRGYGQTELSGFAVTAAYGGPAAGNAGRPGPGLTVRVLDTAGRECAVGEAGEICARGTVVHRGYWNRDEVNAHRFRSGWWHTTDLGRREPDGSLTFLGTTTRMLKSAAENIFPAEVENCIEQHPAVREAAVIGVPNTRWAQDVKAVVVLEPDAGVSEQEIIDHCRPRIASYKKPKSVAFAAALPRTVSGARDYDALDKEYGGGGYPGAATLGPGR
  Km: 6.2 ± 0.6 µM
  Vmax: 5.82 µmol/min
  kcat: 20 s⁻¹
  kcat/Km: 3.2e+06 M⁻¹ s⁻¹

B4: PtmA2 (Streptomyces platensis; A172S/A173G/C179K/M174T/Q178P) (protein)
chain: MQHTTIGDVLREHRRSHPGRTALVDGPVRLTWPELDDRVNRLAGSLAASGIGRGDRIMWLGQNSFRVYELIAAAGKLGAMVCVGYWRWAPPEMEFALRDFDPHLVVWQHQEIHETVARTREALGSDDTARWLRHDSAPQDPDGYEAFLAAGGLADPDLDIDPDSPVLVLYTSGTSGRPKGSLLSHTNLIAMATAAAWLGDIDHTTAFLNSGPMFHIGNHQFWGMPTLLMAGKNVIVRRVVAEEVRDLLVAEECTHAFLMPPTVAEIVRLNRDTGHDLSRLRATVAPHLWEGMATTDTSRFTRSGAAAGRGYGQTELSGFAVTAAYGGPAAGNAGRPGPGLTVRVLDTAGRECAVGEAGEICARGTVVHRGYWNRDEVNAHRFRSGWWHTTDLGRREPDGSLTFLGTTTRMLKSAAENIFPAEVENCIEQHPAVREAAVIGVPNTRWAQDVKAVVVLEPDAGVSEQEIIDHCRPRIASYKKPKSVAFAAALPRTVSGARDYDALDKEYGGGGYPGAATLGPGR
P-loop mutant
  Km: 70 ± 8 µM
  Vmax: 8.88 µmol/min
  kcat: 7.4 s⁻¹
  kcat/Km: 110000 M⁻¹ s⁻¹

B5: PtmA2 (Streptomyces platensis; E416A) (protein)
chain: MQHTTIGDVLREHRRSHPGRTALVDGPVRLTWPELDDRVNRLAGSLAASGIGRGDRIMWLGQNSFRVYELIAAAGKLGAMVCVGYWRWAPPEMEFALRDFDPHLVVWQHQEIHETVARTREALGSDDTARWLRHDSAPQDPDGYEAFLAAGGLADPDLDIDPDSPVLVLYTAAMSGRQCGSLLSHTNLIAMATAAAWLGDIDHTTAFLNSGPMFHIGNHQFWGMPTLLMAGKNVIVRRVVAEEVRDLLVAEECTHAFLMPPTVAEIVRLNRDTGHDLSRLRATVAPHLWEGMATTDTSRFTRSGAAAGRGYGQTELSGFAVTAAYGGPAAGNAGRPGPGLTVRVLDTAGRECAVGEAGEICARGTVVHRGYWNRDEVNAHRFRSGWWHTTDLGRREPDGSLTFLGTTTRMLKSAAANIFPAEVENCIEQHPAVREAAVIGVPNTRWAQDVKAVVVLEPDAGVSEQEIIDHCRPRIASYKKPKSVAFAAALPRTVSGARDYDALDKEYGGGGYPGAATLGPGR
  Km: 7.8 ± 1.2 µM
  Vmax: 5.34 µmol/min
  kcat: 0.18 s⁻¹
  kcat/Km: 23000 M⁻¹ s⁻¹
